Columns and labels:
Assay in all cases: IEDB peptide-MHC binding, purified MHC/direct/fluorescence; filed as Kd, often an IC50 or EC50 that approximates it; ≥ and ≤ were set here for values at or beyond the usual limits of such assays
Settings in all cases: source organism: Homo sapiens
HLA-B*13:02 = target: HLA-B*13:02
HLA-A*02:01 = target: HLA-A*02:01
HLA-A*24:02 = target: HLA-A*24:02
HLA-B*08:01 = target: HLA-B*08:01
HLA-C*01:02 = target: HLA-C*01:02
HLA-C*07:01 = target: HLA-C*07:01

## ELPKYGVKV
HLA-B*13:02
  Kd: ≥ 10 µM

## HLIDPNTLQV
HLA-A*02:01
  Kd: 0.01 µM

## QLPDSVNQL
HLA-A*02:01
  Kd: 0.1 µM

## SYLEQASRI
HLA-A*24:02
  Kd: 1 µM

## FLHEKQHEL
HLA-B*08:01
  Kd: 0.1 µM

## FLPWHRLFL
HLA-C*01:02
  Kd: 0.1 µM

## DMKARQEAL
HLA-B*08:01
  Kd: 0.1 µM

## YIHGGGWAL
HLA-B*08:01
  Kd: 0.1 µM

## LLMEKEDYHSL
HLA-A*02:01
  Kd: 0.1 µM

## KRPTPTFHS
HLA-C*07:01
  Kd: 1 µM

## RSLEYLPLRF
HLA-A*24:02
  Kd: ≥ 10 µM

Source: the Immune Epitope Database (IEDB)
